From the nanobody polyreactivity screen of Harvey et al. (2022)

Assay: yeast display, Sf9 membrane polyspecificity reagent, FACS + sequencing; frameworks hold sequencing errors
Procedure, shortened: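 In a synthetic yeast display library (Saccharomyces cerevisiae BJ5465), nanobody expression was induced with galactose for 36–48 hours. FACS gates were set low and high (top ~1%) using anti-HA fluorescence for expression and streptavidin fluorescence for binding of the Sf9 membrane reagent. Each polyreactivity label is drawn from the gate of origin.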

Sequence | polyreactivity (PSR sort gate)
QVQLVESGGGLVQAGGSLRLSCAASGFIFYRYTMGWYRQAPGKERELVAAISGSGGSTYYADSVKGRFTISRDNAKNTVYLQMNSLKPEDTAVYYCAAAHRYWGQGTQVTVSS | high polyreactivity
QVQLVESGGGLVQAGGSLRLSCAAYGGTLPVNAMGWYRQAPVKERELVAAITTGTSTNYADSVKGRFTISRDNAKNTVYLQMNSLKPEDNAVYYCAKDQADFAYGYWGEGTQVTVSS | low polyreactivity
QVQLVESGGCLVQAGGSLRFTCAASGSIFPYYAMGWYRQAPGKERELVAAISGSGGSTYYADSVTGRFTISRDNAKYTVYLQMNSLNQEDTAVYYCAARPFARYEYWGQGTQVTVSS | low polyreactivity
QDQLVESGGGLVQAGGSLRLSCAAYGSILGGNAMGWYRPAPGKERELVAAITFSGGGTYYADSVKGRFTISRDNAKNTVYLQMNSMKPEDTAVYYCAADKDGYTYEFDYWGQGTQVTVSS | low polyreactivity
QVQLVESGGGLVQAGGTLRLSCAASGSIFAGYAMGWYRQAPGKVRELVATITSGGSTNYADSVKGRFTISRDNAKNTVYLQMNSLKPEETAVYYCAADVEDSIATSYTCGEYVYWGQGTQVTVSS | low polyreactivity
QVQLVESGGGLVQAGGSLRLSCAASGLIFVGYAMGWYRQAPGKERELVAAITSGGSTKYADSVKGRFTISRDNAKNTVYLQMNSLKPEDTAVYYCAASGWRNWWSARNYYWGQGTLVTVSS | low polyreactivity
QVQLVESGGGLVQAGGSLRLSCAASGSTFPTNTMGWYRQAPGKERELVATIRKSSGRTYYADSVKGRFTISRDNAKNTVYLQMNSLKPEDTAVYYCNARRYSGALRYDYWGQGTQVTVSS | high polyreactivity
QVQLVESGGGLVQAGGSLRLSCAASGFTFYRYAMGWYRQAPGKERELVASISRNGGSTYYADTVKGRFTISRDTEKNTVYFLMNSLKPEDTAVYYCNTAFYPPTNFYWGQGTQVTVSS | high polyreactivity
QVQLVESGGGLVQAGGSLRLSCAASGSTFYRYAMGGYRQAPGKERELVASITRGGGRTHYADSVKGRFTISRDNAKNTVYLQMNSLKPEDTAVYYCAAVTPVSYRLYGYWGQGTQVTVSS | high polyreactivity
QVQLVESGGGLVQAGGSLRLSCAASGRIFTKYAMGWYRQAPGKERELVAAITTSGGSTYYADSVKGRFTISRDNAKNTVYLQMNSLKPEDTAVYYCAARTYHRYDYWGQGTQVTVSS | high polyreactivity
QVQLVESGGRLVQAGGSLRLICAASGSICTHNAMGWYRQAPGKERELVADITSSVSSTYYADSVKGRFTISRDNSKNTVDLQMNSLKPEDTSVYYCAGGVGRGMYYWGQGTQVTVSS | low polyreactivity
QVQIVESGGGLVQAGGSLRLSCAASGSTFGYYTMGWYRQAPGKERELVAAISWSGGSTYYADSVKGRFTISRDNAKNTVYLQKNSLKPEDTAVYYCAALGYTYKYYSYYWGQGTQVTVSS | high polyreactivity
QVQLVESGGGLVQAGGSLRLICAASGRIFNVYAMGWYRQAPGKETELVASITSAGSTYYADSVKGRFTISRDNAKNTVYLQMNSLKPEDTAVYYCNAESYSTWSFGHRYEYDYWGQGTQVTVSS | low polyreactivity
QVQLVESGGGLVQAGGSLRLSCAASGLTFAYYAMGWYRQAPGKERELVATISRSGSTYYADSVKGRFTISRDNAKNTVYLQMNSLKPEDTAVDYCATAYHHYVYRQYTFGRGIYDFWGQGTQVTVSS | high polyreactivity
QVQLVESGGGLVQAGGSLRLSCAASGSTFSYNAMGWYRQAPGKERELVAAISRGDVSTYYADSVKGRFTISRDNAKNTVYLQMNSLKPEDTAVYYCAAYWYGSQYKWRYDYWGQGTQVTVSS | low polyreactivity
QVQLVESGGGLVQAGGSLRLSCAASGFTFWYYAMGWYRQAPGKERELVAAIDSGVTRTYYADSVKGRFTISRDNAKNTVYLQMNSLKPEDTAVYYCNADFVWRGDYWGQGTQVTVSS | low polyreactivity
QVQLVESGGGLVQAGGSLRLSCAASGGIFRYNAMGWYRQAPGKERELVAAISYRGGSTYYADSVKGRFTISRDNAKNTVYLQMNSLKPEDTAVYYCAAVYYQDKRGDYWGQGTQVTVSS | high polyreactivity
